Measured values: paper PMC12802916

Target: T1, ST2/IL-33R Fc chimera (Mus musculus, UniProt P14719 27-332)
T1 sequence: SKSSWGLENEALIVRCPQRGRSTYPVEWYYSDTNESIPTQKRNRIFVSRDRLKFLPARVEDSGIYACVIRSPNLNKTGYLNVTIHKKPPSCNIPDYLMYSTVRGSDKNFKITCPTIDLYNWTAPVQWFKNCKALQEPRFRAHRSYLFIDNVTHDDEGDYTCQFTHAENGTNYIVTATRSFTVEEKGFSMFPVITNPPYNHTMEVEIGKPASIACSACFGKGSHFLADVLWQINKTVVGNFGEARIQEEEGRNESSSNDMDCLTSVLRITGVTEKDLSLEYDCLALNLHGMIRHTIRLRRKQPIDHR
Assay: SPR; SPR (Biacore T200): 295 mM NaCl, 5.4 mM KCl, 0.8 mM MgCl2, 18 mM CaCl2 (printed CaClCl2), 0.05% Tween 20, 20 mM Tris-HCl pH 7.6; temperature not stated. A/C: po

Binder | binding signal
B RaptScore round6 2 (ssRNA) RNA: GGGAGAACUUCGACUUGUAACAAGCUGUUUUGGAACAGCGCAUAACGAACCGUGCAGAGAUCCUC | -4.91 % of B Round7 3
B RaptScore round7 3 (ssRNA) RNA: GGGAGAACUUCGACUUGUAACAAGCUGUUUUGGAACAGCGCAUAACGAUUCGUGCAGAGAUCCUC | -0.82 % of B Round7 3
B RaptScore round6 3 (ssRNA) RNA: GGGAGAACUUCGACUUGUAACAAGCUGUUUUGGAACAGCGCAUAACGAAACGUGCAGAGAUCCUC | -3.28 % of B Round7 3
B RaptScore round7 1 (ssRNA) RNA: GGGAGAACUUCGACUUGUAACAAGCUGUUUUGGAACAGCGCAUAACGAUCCGUGCAGAGAUCCUC | -4.12 % of B Round7 3
